A value given as a limit tells only on which side of the number the result lay.

Experimental findings from patent US20200155602A1 (IMMATICS BIOTECHNOLOGIES, published 2020) are described below.

In the experiment the target is T1, HLA-A*02:01 (human).
T1 construct: Peptide-receptive HLA-A*02:01 monomer obtained by UV cleavage of a UV-sensitive ligand; captured on streptavidin plates; also called peptide-receptive MHC molecules; MHC class I
Kind of experiment: UV-ligand exchange, anti-b2m ELISA; grade of peptide exchange yield (>10% = +; >20% = ++; >50 = +++; >75% = ++++). An excerpt: Candidate peptides for T cell based therapies according to the present invention were further tested for their MHC binding capacity (affinity). The individual peptide-MHC complexes were produced by UV-ligand exchange, where a UV-sensitive peptide is cleaved upon UV-irradiation, and exchanged with the peptide of interest as analyzed. Only peptide candidates that can effectively bind and stabilize the peptide-receptive MHC molecules prevent dissociation of the MHC complexes. To determine the yield of the exchange reaction, an ELISA was performed based on the detection of the light chain (β2m) of stabilized MHC complexes. The assay was performed as generally described in Rodenko et al. (Rodenko et al., 2006).
96 well MAXISorp plates (NUNC) were coated over night with 2 ug/ml streptavidin in PBS at room temperature, washed 4× and blocked for 1 h at 37° C. in 2% BSA containing blocking buffer. Refolded HLA-A*02:01/MLA-001 monomers served as standards, covering the range of 15-500 ng/ml. Peptide-MHC monomers of the UV-exchange reaction were diluted 100-fold in blocking buffer. Samples were incubated for 1 h at 37° C., washed four times, incubated with 2 ug/ml HRP conjugated anti-β2m for 1 h at 37° C., washed again and detected with TMB solution that is stopped with […]. Absorption was measured at 450 nm. Candidate peptides that show a high exchange yield (preferably higher than 50%, most preferred higher than 75%) are generally preferred for a generation and production of antibodies or fragments thereof, and/or T cell receptors or fragments thereof, as they show sufficient avidity to the MHC molecules and prevent dissociation of the MHC complexes.
A general note: An ELISA detects its analyte on a solid surface through an enzyme-linked reagent.
For the molecule KLPEPCPSTV, the peptide exchange yield was in the range of 50 to 75%.
As for FVAGYIAGV, the figure is > 75%.
Under SLCPPGGIQEV stands > 75%; under LLTPLNLQI, 50 to 75%; under ALAKLLPLL, > 75%.
Under RLVEVGGDVQL stands > 75%; under GLGDDSFPI, > 75%.
On to SIWPALTQV, for which the peptide exchange yield is > 75%.
ALYDAELSQM: the peptide exchange yield lay in the range of 50 to 75%.
With GLWSSIFSL, the peptide exchange yield is > 75%.
Regarding FLHEPFSSV, the peptide exchange yield was > 75%.
For KLLPGVQYV, the peptide exchange yield is > 75%.
Molecule SLPESGLLSV showed a peptide exchange yield of 50 to 75%.
Under SLGNFKDDLL stands 50 to 75%.
VLNVGVAEV: the peptide exchange yield lay within 50 to 75%.
In the case of SLVSYLDKV, the peptide exchange yield was > 75%.
As for SLSDIQPCL, the figure is 50 to 75%; as for HLATVKLLV, > 75%; as for ALKDSVQRA, 50 to 75%.
Under YLYPDLSRL stands > 75%; under IQDAEGAIHEV, > 75%.
As for PVCPPGGIQEV, the figure is 50 to 75%; as for RLNGEGVGQVNISV, 20 to 50%; as for AILGFALSEA, > 75%.
On to YLINEIDRIRA, for which the peptide exchange yield was > 75%.
Consider RIMEGIPTV, for which the peptide exchange yield was > 75%.
Molecule SLYGLGGSKRISI came in with a peptide exchange yield of 50 to 75%.
Under YLAEPQWAV stands > 75%; under LLIAINPQV, > 75%.
Under GLIEWLENTV stands > 75%.
ILDINDNPPV displayed a peptide exchange yield of 50 to 75%.
As for VLDINDNPPV, the figure is 50 to 75%; as for FLIPSIIFA, > 75%.
As for YLQNEVFGL, the figure is 50 to 75%; as for ALSNVVHKV, > 75%; as for LLFTGLVSGV, 50 to 75%.
As to ALVGDVILTV, the peptide exchange yield is > 75%.
For the molecule AVLGGKLYV, the peptide exchange yield was > 75%.
TLTDEINFL: the peptide exchange yield is > 75%.
In the case of ILLEDVFQL, the peptide exchange yield was > 75%.
The molecule YLLDYPNNL gave a peptide exchange yield of 50 to 75%.
In turn, TLVDENQSWYL (also called TLVDENQSWYL) […] gave a peptide exchange yield of 50 to 75%.
Under VLFSSPPVI stands > 75%; under YLWEAHTNI, > 75%; under AIYEGVGWNV, > 75%.
As for VCPPGGIQEV, the figure is 50 to 75%; as for GLAGGFGGPGFPV, > 75%; as for ALYTSGHLL, > 75%.
Take AVDPVSGSLYV: the peptide exchange yield is > 75%.
For GLISSIEAQL, the peptide exchange yield was > 75%.
As for ILSSACYTV, the figure is > 75%; as for ALDTFSVQV, > 75%.
For the molecule RLLPDLDEV, the peptide exchange yield is > 75%.
As to QLLEGELETL, the peptide exchange yield lay within 50 to 75%.
With TLASLGYAVV, the peptide exchange yield was in the range of 50 to 75%.
In turn, RLSGEGVGPV yielded a peptide exchange yield of 50 to 75%.
Turning to FLQLETEQV, the peptide exchange yield was > 75%.
The molecule LLPEDDTRDNV showed a peptide exchange yield of 50 to 75%.
TLWPATPPKA returned a peptide exchange yield of 50 to 75%.
The molecule SMLNNIINL returned a peptide exchange yield of 50 to 75%.
